This passage reports coupled activity (ATP-synthesis rate driven by proton pumping of cyt. bo3; luciferin/luciferase luminescence) in 100 nm DOPC vesicles, relative to unlabeled proteins, normalized ATP-synthesis rate in 100 nm DOPC:DOPG vesicles, 0-40% DOPG, relative to 100% DOPC; value and coupled activity (ATP-synthesis rate driven by proton pumping of cyt. bo3) in 100 nm DOPC vesicles, increase relative to unlabeled proteins results from paper PMC5462737.

Test [1] has as its target F1Fo ATP synthase from E. coli, labeled with ATTO 594 (E. coli) (UniProt P0ABB4).
Sequence of UniProt P0ABB4 (P0ABB4 whole entry, looked up): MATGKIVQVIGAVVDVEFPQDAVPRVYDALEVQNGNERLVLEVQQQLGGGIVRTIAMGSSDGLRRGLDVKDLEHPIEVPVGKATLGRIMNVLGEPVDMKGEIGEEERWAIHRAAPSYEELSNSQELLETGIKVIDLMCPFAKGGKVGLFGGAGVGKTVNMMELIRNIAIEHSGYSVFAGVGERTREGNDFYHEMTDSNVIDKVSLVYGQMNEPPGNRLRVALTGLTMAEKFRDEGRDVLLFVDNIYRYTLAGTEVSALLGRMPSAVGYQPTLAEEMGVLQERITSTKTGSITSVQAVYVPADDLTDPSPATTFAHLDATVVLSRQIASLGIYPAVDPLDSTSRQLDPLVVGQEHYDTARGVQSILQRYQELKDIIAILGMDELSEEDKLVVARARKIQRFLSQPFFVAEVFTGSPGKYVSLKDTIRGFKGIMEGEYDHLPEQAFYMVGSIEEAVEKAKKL
Test [2] has the same target. The source holds these as a separate data set.

Some results are limits rather than exact numbers.

Regarding “cytochrome bo3 (ubiquinol oxidase) from E. coli, labeled with ATTO 647N (complex)”, the coupled activity (ATP-synthesis rate driven by proton pumping of cyt. bo3; luciferin/luciferase luminescence) in 100 nm DOPC vesicles, relative to unlabeled proteins in test [1] was 5 fold. Moreover, the normalized ATP-synthesis rate in 100 nm DOPC:DOPG vesicles, 0-40% DOPG, relative to 100% DOPC; value at 60% DOPC in test [2] came out at 60%.

Take “cytochrome bo3 (ubiquinol oxidase) from E. coli, labeled with Abberior STAR 635 (complex)”: in test [1], the coupled activity (ATP-synthesis rate driven by proton pumping of cyt. bo3) in 100 nm DOPC vesicles, increase relative to unlabeled proteins was less than 2 fold.
